Experimental data taken from the supplement of paper PMC7125110.
± gives the standard error. Variants at the floor of the assay were thinned out.

B1: glmS ribozyme (parent)
chain: AUAAAAGCGCCAGAACUACAGAAAUGUAGUUGACGAGGAGGAGGUUUAUCGAAUUUUCGGCGGAUGCCUCCAAA

Variants of: B1
Assay: self-cleavage kobs at 2500 uM GlcN6P; higher = faster cleavage; RNA array
Conditions: with glucosamine-6-phosphate
Procedure, shortened: (§1)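 A hybridised Cy3 probe tracked barcoded ribozyme variants, transcribed in situ by E. coli RNA polymerase on sequenced MiSeq chips, at 37 °C. The variants received 40 μM to 10 mM glucosamine-6-phosphate in HEPES/KCl/Mg(OAc)2 buffer. kobs came from decay fits and kcat and KM from weighted Michaelis–Menten fits.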

| Variant | self-cleavage kobs at 2500 uM GlcN6P |
| --- | --- |
| C11U G63A U65C | < 1e-05 s⁻¹ |
| A52G U57C C67U | 0.000161 ± 7.8e-05 s⁻¹ |
| G40U A42U G43A C71A | < 1e-05 s⁻¹ |
| A12U U57C C71G | 0.000242 ± 0.00011 s⁻¹ |
| C10A G41A G43C | < 1e-05 s⁻¹ |
| G40U G43U U54A | < 1e-05 s⁻¹ |
| U46A C58A C61U | < 1e-05 s⁻¹ |
| C34G U46A U47A U65C C68G | < 1e-05 s⁻¹ |
| G38A G41A C50G C61U | < 1e-05 s⁻¹ |
| A33G A36C G44C U45A C50U C71A | < 1e-05 s⁻¹ |
| A6G A53C C68A | < 1e-05 s⁻¹ |
| A12C U65G U69C | 0.000703 ± 0.0002 s⁻¹ |
| C10A G35A A36U | < 1e-05 s⁻¹ |
| G35C G38C A48U | < 1e-05 s⁻¹ |
| C16A G66A C68U | 6.12e-05 ± 1.5e-05 s⁻¹ |
| C8G C10G A39C | < 1e-05 s⁻¹ |
| C34G G43C U46G U69G | < 1e-05 s⁻¹ |
| A12G G29C G37A U46A | < 1e-05 s⁻¹ |
| U31G G37U U56G | < 1e-05 s⁻¹ |
| A6U A15U G51C | < 1e-05 s⁻¹ |
| C11G G29A C70U | 6.76e-05 ± 3.2e-05 s⁻¹ |
| G13C A15C G59A | < 1e-05 s⁻¹ |
| C11A A42U G43A | < 1e-05 s⁻¹ |
| C8U C34U G63C | < 1e-05 s⁻¹ |
| A53G U56C G60U G62A | < 1e-05 s⁻¹ |
| C11U U31G A53C | 0.000433 ± 0.0001 s⁻¹ |
| G9C G41A C70U | < 1e-05 s⁻¹ |

| Variant | self-cleavage kobs at 2500 uM GlcN6P |
| --- | --- |
| G13C C58G G59A | < 1e-05 s⁻¹ |
| G32C U55A | 4.27e-05 ± 1.5e-05 s⁻¹ |
| A14U G40A G43A U45G | 0.000402 ± 8.4e-05 s⁻¹ |
| C16A U56G C70U | 0.000265 ± 6e-05 s⁻¹ |
| A48C U49A U55C | < 1e-05 s⁻¹ |
| A6C G13U G60U U65C | < 1e-05 s⁻¹ |
| G35U G40U U49G | < 1e-05 s⁻¹ |
| C11U U30C A39G A42G | 0.000103 ± 3.7e-05 s⁻¹ |
| A15U U30G C58U | 2.92e-05 ± 1.5e-05 s⁻¹ |
| A15G U47A C58G | 4.72e-05 ± 1.4e-05 s⁻¹ |
| A24C G40U | 0.00193 ± 0.0007 s⁻¹ |
| C16U G43C U45G | 0.000762 ± 0.00024 s⁻¹ |
| U31C C34G G35U C68G | 0.000147 ± 6.7e-05 s⁻¹ |
| A36C A42U G63C | < 1e-05 s⁻¹ |
| C16A G38A U55A | < 1e-05 s⁻¹ |
| A12U G32U G43C | < 1e-05 s⁻¹ |
| G35C U46A C67G | < 1e-05 s⁻¹ |
| G29C C34G G51U U54A U65A C70U | < 1e-05 s⁻¹ |
| G43C U46G A52G U54G G60A | < 1e-05 s⁻¹ |
| A6G G7U C70G | 5.26e-05 ± 2.1e-05 s⁻¹ |
| A52C U69G | 9.19e-05 ± 4.2e-05 s⁻¹ |
| A15G G32C A53G | 4.37e-05 ± 1.3e-05 s⁻¹ |
| C50A U55G C67G | 9.38e-05 ± 3.7e-05 s⁻¹ |
| C10U G13A A52U U69G | 4.08e-05 ± 1.4e-05 s⁻¹ |
| G35U G60A C68U | < 1e-05 s⁻¹ |
| C11G G29U C50U C67U | 0.0015 ± 0.00049 s⁻¹ |
| C10A G63A C71U | < 1e-05 s⁻¹ |

| Variant | self-cleavage kobs at 2500 uM GlcN6P |
| --- | --- |
| G38U A48G U55C C67G | < 1e-05 s⁻¹ |
| U30G A42G G66U C71A | 4.6e-05 ± 2.2e-05 s⁻¹ |
| C8U A12C U30A | < 1e-05 s⁻¹ |
| C8A U45G U57A | < 1e-05 s⁻¹ |
| G32U A39U G60U | < 1e-05 s⁻¹ |
| G35U C50G G66A | 7.38e-05 ± 3.6e-05 s⁻¹ |
| C8U A15G G43A | < 1e-05 s⁻¹ |
| A6G G9C G63C A64U | < 1e-05 s⁻¹ |
| A6C A15U G43U U54G | < 1e-05 s⁻¹ |
| A53C U57G C67U | 8.03e-05 ± 2.5e-05 s⁻¹ |
| A36C G43C G51C C61A C71U | < 1e-05 s⁻¹ |
| A6C G7C G41A | < 1e-05 s⁻¹ |
| C34U C67G C68G | 0.000147 ± 3.9e-05 s⁻¹ |
| U56G G60A U65G | < 1e-05 s⁻¹ |
| C10G G44U C50G | < 1e-05 s⁻¹ |
| G7A G29C G38A G44C | < 1e-05 s⁻¹ |
| A15U G29A G35U G37A U54A | < 1e-05 s⁻¹ |
| G41U A42C C70U | 0.000121 ± 2.6e-05 s⁻¹ |
| A15U A33U G62A | < 1e-05 s⁻¹ |
| U30C G35A G37U C70A | 0.000153 ± 4.9e-05 s⁻¹ |
| C16U A42G U57C | 0.000189 ± 6.6e-05 s⁻¹ |
| A14G A53G G66A | 0.0162 ± 0.0057 s⁻¹ |
| A39U A64C C70G | < 1e-05 s⁻¹ |
| C34U G35A G38U G43A | < 1e-05 s⁻¹ |
| A39G A48C C71G | 4.19e-05 ± 1.9e-05 s⁻¹ |
| C10U A52U A53U U55C U65G | < 1e-05 s⁻¹ |

Variants of: B1
Assay: self-cleavage kobs at 10000 uM GlcN6P; higher = faster cleavage; RNA array
Conditions: with glucosamine-6-phosphate
Procedure, shortened: as §1

| Variant | self-cleavage kobs at 10000 uM GlcN6P |
| --- | --- |
| A52G U57C C67U | 0.000116 ± 2.5e-05 s⁻¹ |
| G40U G43U U54A | < 1e-05 s⁻¹ |
| C34G U46A U47A U65C C68G | < 1e-05 s⁻¹ |
| G32C U55A | 9.57e-05 ± 1.5e-05 s⁻¹ |
| U31C C34G G35U C68G | 0.000118 ± 4.1e-05 s⁻¹ |
| G7A G29C G38A G44C | < 1e-05 s⁻¹ |
| C16U A42G U57C | 0.00018 ± 4.1e-05 s⁻¹ |
